Experimental data as given in article PMC12302927.

Experiments:
Assay in all cases: co-IP; 293T cells co-transfected with HA-tagged STAT1 (WT, K193R, K584R) and FLAG-p300; band intensities quantified; which protein was precipitated not given
HA-tagged STAT1 (WT) = HA-tagged STAT1 (WT) (UniProt P42224)
HA-tagged STAT1 K193R = HA-tagged STAT1 K193R (UniProt P42224)
HA-tagged STAT1 K584R = HA-tagged STAT1 K584R (UniProt P42224)

Substance: FLAG-p300, Q09472 1-2414
- relative co-IP band intensity (HA-tagged STAT1 (WT)): 0.202
- relative co-IP band intensity (HA-tagged STAT1 K193R): 0.194
- relative co-IP band intensity (HA-tagged STAT1 K584R): 0.239
